Here are results for one substance from patent publication US6558913.

The data set has as its target factor Xa-activated factor V(Q506) (UniProt P12259).
Sequence of UniProt P12259 (P12259 29-737 R534Q, chain 1 of 2): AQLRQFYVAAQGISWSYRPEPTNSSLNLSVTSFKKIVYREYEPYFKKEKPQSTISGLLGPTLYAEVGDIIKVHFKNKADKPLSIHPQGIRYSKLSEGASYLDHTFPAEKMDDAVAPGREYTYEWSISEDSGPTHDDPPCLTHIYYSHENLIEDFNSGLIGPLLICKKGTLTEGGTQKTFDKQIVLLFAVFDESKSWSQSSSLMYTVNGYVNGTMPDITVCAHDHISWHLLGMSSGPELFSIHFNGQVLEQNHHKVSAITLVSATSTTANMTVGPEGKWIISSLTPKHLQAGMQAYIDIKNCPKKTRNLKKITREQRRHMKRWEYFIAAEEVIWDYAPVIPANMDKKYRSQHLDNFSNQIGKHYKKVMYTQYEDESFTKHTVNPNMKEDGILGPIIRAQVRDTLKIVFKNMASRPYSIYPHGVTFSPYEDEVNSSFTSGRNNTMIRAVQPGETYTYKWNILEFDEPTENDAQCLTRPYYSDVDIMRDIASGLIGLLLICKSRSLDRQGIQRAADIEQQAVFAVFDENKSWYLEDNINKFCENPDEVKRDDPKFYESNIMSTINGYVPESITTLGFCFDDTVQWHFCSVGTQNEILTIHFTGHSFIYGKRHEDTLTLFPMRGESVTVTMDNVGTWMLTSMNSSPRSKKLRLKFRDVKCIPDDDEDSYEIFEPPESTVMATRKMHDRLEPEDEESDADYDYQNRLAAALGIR
Sequence of UniProt P12259 (P12259 1047-2224, chain 2 of 2): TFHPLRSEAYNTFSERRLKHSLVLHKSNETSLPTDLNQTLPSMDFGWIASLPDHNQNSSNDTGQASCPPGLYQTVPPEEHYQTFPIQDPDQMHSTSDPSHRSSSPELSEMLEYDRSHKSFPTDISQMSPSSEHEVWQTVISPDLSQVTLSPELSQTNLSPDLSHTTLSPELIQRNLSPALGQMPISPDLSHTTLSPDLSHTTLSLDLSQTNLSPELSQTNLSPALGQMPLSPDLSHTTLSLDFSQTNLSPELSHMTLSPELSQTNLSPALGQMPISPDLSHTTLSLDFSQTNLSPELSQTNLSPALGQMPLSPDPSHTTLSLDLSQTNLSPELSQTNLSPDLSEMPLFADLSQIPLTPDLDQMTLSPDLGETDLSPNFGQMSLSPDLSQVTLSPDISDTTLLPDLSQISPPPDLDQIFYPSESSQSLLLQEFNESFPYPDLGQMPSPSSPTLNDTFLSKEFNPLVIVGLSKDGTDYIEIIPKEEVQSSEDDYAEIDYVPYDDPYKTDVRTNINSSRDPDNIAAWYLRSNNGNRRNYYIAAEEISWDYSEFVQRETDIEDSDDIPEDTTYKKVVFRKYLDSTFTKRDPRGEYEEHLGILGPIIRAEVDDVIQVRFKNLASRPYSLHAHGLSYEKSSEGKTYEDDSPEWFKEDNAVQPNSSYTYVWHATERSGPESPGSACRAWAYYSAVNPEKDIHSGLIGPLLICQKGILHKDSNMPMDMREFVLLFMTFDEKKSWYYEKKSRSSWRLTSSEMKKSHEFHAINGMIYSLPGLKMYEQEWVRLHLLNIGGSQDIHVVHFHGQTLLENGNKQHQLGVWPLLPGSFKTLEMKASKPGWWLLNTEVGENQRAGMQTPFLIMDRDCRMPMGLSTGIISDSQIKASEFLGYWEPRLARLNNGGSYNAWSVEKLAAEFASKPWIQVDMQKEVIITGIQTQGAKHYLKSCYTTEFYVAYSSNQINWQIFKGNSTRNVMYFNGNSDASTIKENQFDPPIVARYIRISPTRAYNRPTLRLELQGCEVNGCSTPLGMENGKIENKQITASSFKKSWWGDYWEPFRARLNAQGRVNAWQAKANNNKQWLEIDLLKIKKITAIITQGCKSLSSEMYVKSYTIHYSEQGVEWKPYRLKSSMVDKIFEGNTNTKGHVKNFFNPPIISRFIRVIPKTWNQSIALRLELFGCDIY

For activated protein C, the “factor Va activity over time after addition of APC (inactivation by APC)” value is “the replacement of Arg-506 by Gln only prevents the inactivation of the Xa-activated form of factor V by APC (FIG. 8)”.
